This note sets out measurements from PMC13276077.

Common to all, as to assay: EMSA
For orientation: A gel shift assay detects complexes by their altered migration in electrophoresis.

The target in series [1] is MeCP2 full-length, e2 isoform (Homo sapiens) (UniProt P51608). To be noted: EMSA: 20 mM HEPES pH 7.5, 75 mM NaCl, 125 mM KCl, 50 uM EDTA, 2.5 mM beta-mercaptoethanol, 5% glycerol, BSA, 1.58 uM 47 bp competitor DNA (absent in free DNA …).
In another series the target is MeCP2 MBD (Homo sapiens) (UniProt P51608). To be noted: EMSA: 20 mM HEPES pH 7.5, 75 mM NaCl, 125 mM KCl, 50 uM EDTA, 2.5 mM beta-mercaptoethanol, 5% glycerol, BSA, 1.58 uM 47 bp competitor DNA (absent in free DNA …).
Series [2] has as its target MeCP2 R133G R133G (Homo sapiens) (UniProt P51608). To be noted: apparent, competitor DNA, EMSA: 20 mM HEPES pH 7.5, 75 mM NaCl, 125 mM KCl, 50 uM EDTA, 2.5 mM beta-mercaptoethanol, 5% glycerol, BSA, 1.58 uM 47 bp competitor DNA (absent in free DNA …).
Setting [3] is: apparent, no competitor DNA, meCpG at -1.

For “CGGTACCTCGCGAATGCATCTAATGGAACACATTGCACAGGATGTATCCGGCTGACACGTGCCTGGAGACTAGGGAGTAATCCCCTTGGCGGTTAAAACGCGGGGGACAGAGCGTACGTGCGTTTAAGCGGTGCTAGAGCTGTCGCGCCCCAATTGAGCGGCCTCGGCACAGGGATTCTCCAGGGCGGCCGCGTATTGGATCCCGAGCC (double strand) [37-N601(mod2)-27 nucleosome +61 meCpG]”, the Kd in series [1] (meCpG at +61) was found to be 62 nM.
As for “CGGTACCTCGCGAATGCATCTAATGGAACACATTGCACAGGATGTATATATCTGACACGTGCCTGGAGACTAGGGAGTAATCCCCTTGGCGGTTAAAACGCGGGGGACAGAACGCCGGTGCGTTTAAGCGGTGCTAGAGCTGTCTACGACCAATTGAGCGGCCTGCGCACAGGGATTCTCCAGGGCGGCCGCGTATTGGATCCCGAGCC (double strand) [37-N601(mod)-27 nucleosome -6 meCpG]”, the Kd in series [1] (meCpG at -6) worked out at 57.4 nM.
Sequence “GAGCCACAAAATCACCGACGCCCGGGGGTGCCCAGTTCGCGCGCCCACCTACCGTGTGAAGTCGTCACTCGGGCTTCTAAGTACGCTTAGCGCACGGTAGAGCGCAATCCAAGGCTAACCACCGTGCATCGATGTTGAAAGAGGCCCTCCGTCCTTATTACTTCAAGTCCCTGGGGTACCCGTTTCACTGCCA (double strand) [16-N603-30 +81 CG nucleosome 81 meCpG]” had a Kd in series [1] (meCpG at 81) of 65.5 nM.
In series [1] (meCpG at 91), “GAGCCACAAAACCGGCGACGCTCACGGGTGCCCAGTTCGCGCGCCCACCTACCGTGTGAAGTCGTCACTCGGGCTTCTAAGTACGCTTAGCGCACGGTAGAGCGCAATCCAAGGCTAACCACCGTGCATCGATGTTGAAAGAGGCCCTCCGTCCTTATTACTTCAAGTCCCTGGGGTACCCGTTTCACTGCCA (double strand) [16-N603-30 +91 CG nucleosome 91 meCpG]” showed a Kd of 71.3 nM.
Sequence “CGGTACCTCGCGAATGCATCTAATGGAACACATTGCACAGGATGTATATATCTGACACGTGCCTGGAGACTAGGGAGTAATCCCCTTGGCGGTTAAAACGCGGGGGACAGAACGCCGGTGCGTTTAAGCGGTGCTAGAGCTGTCTACGACCAATTGAGCGGCCTGCGCACAGGGATTCTCCAGGGCGGCCGCGTATTGGATCCCGAGCC (double strand) [37-N601(mod)-27 nucleosome unmethylated]” had a Kd in series [1] of 82.1 nM.
Turning to “ATGGAACACATTGCACAGGATGTATATATCTGACACGTGCCTGGAGACTAGGGAGTAATCCCCTTGGCGGTTAAAACGCGGGGGACAGCGCGTACGTGCGTTTAAGCGGTGCTAGAGCTGTCTACGACCAATTGAGCGGCCTCGGCACCGGGATTCTCCAGGGCGGCCGCGTATT (double strand) [15-N601-15 nucleosome -1 meCpG]”, the values for the Kd (with MeCP2 MBD (Homo sapiens) (meCpG at -1); in series [1] (meCpG at -1); in series [2] (meCpG at -1)) were 812 nM, 130 nM and 522 nM, respectively.
Regarding “CAGGATGTATATATCTGACACGTGCCTGGAGACTAGGGAGTAATCCCCTTGGCGGTTAAAACGCGGGGGACAGCGCGTACGTGCGTTTAAGCGGTGCTAGAGCTGTCTACGACCAATTGAGCGGCCTCGGCACCGGGATTCTCCA (double strand) [N601 nucleosome core particle -1 meCpG]”, the figures for the Kd (in the series with MeCP2 MBD (Homo sapiens) (setting [3]); in series [1] (setting [3])) were 50.7 nM and 44.2 nM, respectively.
“ATGGAACACATTGCACAGGATGTATATATCTGACACGTGCCTGGAGACTAGGGAGTAATCCCCTTGGCGGTTAAAACGCGGGGGACAGCGCGTACGTGCGTTTAAGCGGTGCTAGAGCTGTCTACGACCAATTGAGCGGCCTCGGCACCGGGATTCTCCAGGGCGGCCGCGTATT (double strand) [15-N601-15 nucleosome -61 meCpG]”: the Kd with MeCP2 MBD (Homo sapiens) (meCpG at -61 (GGCACCGGGATT)) came out at 809 nM; in series [1] (meCpG at -61 (GGCACCGGGATT)) it was 137 nM; in series [2] (meCpG at -61 (GGCACCGGGATT)), 534 nM.
Turning to “GAGCCACAAAATCACCGACGCTCACGGGTGCCCAGTTCGCGCGCCCACCTACCGTGTGAAGTCGTCACTCGGGCTTCTAAGTACGCTTAGCGCACGGTAGAGCGCAATCCAAGGCTAACCACCGTGCATCGATGTTGAAAGAGGCCCTCCGTCCTTATTACTTCAAGTCCCTGGGGTACCCGTTTCACTGCCA (double strand) [16-N603-30 nucleosome 81 meCpA]”, the figures for the Kd (in the series with MeCP2 MBD (Homo sapiens) (asymmetric meCpA at 81); in series [1] (asymmetric meCpA at 81)) were 268 nM and 65.3 nM, respectively.
As for “CGGTACCTCGCGAATGCATCTAATGGAACACATTGCACAGGATGTATCCGGCTGACACGTGCCTGGAGACTAGGGAGTAATCCCCTTGGCGGTTAAAACGCGGGGGACAGAGCGTACGTGCGTTTAAGCGGTGCTAGAGCTGTCGCGCCCCAATTGAGCGGCCTCGGCACAGGGATTCTCCAGGGCGGCCGCGTATTGGATCCCGAGCC (double strand) [37-N601(mod2)-27 nucleosome unmethylated]”, the Kd in series [1] amounted to 91.9 nM.
With “ATGGAACACATTGCACAGGATGTATATATCTGACACGTGCCTGGAGACTAGGGAGTAATCCCCTTGGCGGTTAAAACGCGGGGGACAGCGCGTACGTGCGTTTAAGCGGTGCTAGAGCTGTCTACGACCAATTGAGCGGCCTCGGCACCGGGATTCTCCAGGGCGGCCGCGTATT (double strand) [15-N601-15 nucleosome 81 meCpA]”, the Kd in series [1] (apparent, H1.0 1-97 prebound, competitor DNA, linker meCpA 81 bp from dyad) was 382 nM; in series [1] (apparent, H1.0 25-97 prebound, competitor DNA, linker meCpA 81 bp from dyad) it was 295 nM.
“CGGTACCTCGCGAATGCATCTAATGGAACACATTGCACAGGATGTATCCGGCTGACACGTGCCTGGAGACTAGGGAGTAATCCCCTTGGCGGTTAAAACGCGGGGGACAGAGCGTACGTGCGTTTAAGCGGTGCTAGAGCTGTCGCGCCCCAATTGAGCGGCCTCGGCACAGGGATTCTCCAGGGCGGCCGCGTATTGGATCCCGAGCC (double strand) [37-N601(mod2)-27 nucleosome -36 meCpG]”: the Kd in series [1] (meCpG at -36) is 70.8 nM.
In series [1] (meCpG at -56), “CGGTACCTCGCGAATGCATCTAATGGAACACATTGCACAGGATGTATATATCTGACACGTGCCTGGAGACTAGGGAGTAATCCCCTTGGCGGTTAAAACGCGGGGGACAGAACGCCGGTGCGTTTAAGCGGTGCTAGAGCTGTCTACGACCAATTGAGCGGCCTGCGCACAGGGATTCTCCAGGGCGGCCGCGTATTGGATCCCGAGCC (double strand) [37-N601(mod)-27 nucleosome -56 meCpG]” yielded a Kd of 55.8 nM.
